Results published in article PMC7943195.

Columns and labels:
[1] = target: A. baumannii 19606 PBP1B (Acinetobacter baumannii 19606 (ATCC))
[2] = target: P. aeruginosa PBP1B (Pseudomonas aeruginosa)

| fold stimulation of the glycosyltransferase rate (dansyl-lipid II assay) with 0.5 µM LpoP^Ab(sol), Triton X-100-solubilised PBP1B^Ab [1] | fold increase of the final FRET with 2 µM LpoP^Pa(sol), PBP1B^Pa in liposomes [2] | fold increase of the final FRET with 2 µM LpoP^Pa(sol), Triton X-100-solubilised PBP1B^Pa [2] | Substance |
| --- | --- | --- | --- |
| 3.3 fold |  |  | A. baumannii 19606 LpoP(sol) (natural protein) |
|  | 2.2 fold | 2.1 fold | P. aeruginosa LpoP(sol) (natural protein) |
